# Reference: US20110191903A1, “ENGINEERING PLANT RESISTANCE TO DISEASES CAUSED BY PATHOGENS” (Pioneer Hi-Bred International, Inc., priority 2009, published 2011)
# Positions count from the first letter of the chain named. Names and notes keep the numbering of the source.
# B1: Ceriporiopsis subvermispora oxalate oxidase OXOX-C variant ALT1 (WT-Q7), glycosylation minus, T60I/T384Q/S430Q relative to SEQ ID NO: 37, SEQ ID NO: 23 … (protein)
# chain: RPTENGPQIVIANNAGTYLPVLRGSGTKSSSAADATQTVPFASDDPNPRLWDIDTKNLIKVTPERGQLGAKILGPDNLPIDLQNADTLAPPTTDSGSIPNPKWPFALSHNTLYSGGWVRIQNDEVMPIAKAMAGVNMRLEAGAIRELHWHNTPEWAYILKGTTQITAVDQNGRNYLANVGPGDLWYFPEGMPHSLQGTDANNEGSEFLLIFPDGTFDSSNQFMITDWLAHTPKDVIAKNFGVDISEFDRLPSHDLYIFPGVAPPLDAKAPEDPQGTIPLPYSFEFSKVKPTQYAGGTVKIADTRTFPIAKTISVAEVTVEPGAMRELHWHPTEDEWTFFIEGQARVTIFAGQSNAQTYDYQGGDIAYIPTAWGHYVENSGNTQLRFLEIFNSPLFEDVSLAQWIANTPPAIVKATLQLSDEVINTLNKQKAFVVG
# notes: glycosylation sites removed
# B2: Ceriporiopsis subvermispora oxalate oxidase OXOX-C variant ALT2 (glyc-), glycosylation minus, T60R/T384V/S430D relative to SEQ ID NO: 37, SEQ ID NO: 24 … (protein)
# chain: B1 chain with I59R, Q383V, Q429D
# notes: glycosylation sites removed
# B3: Ceriporiopsis subvermispora oxalate oxidase OXOX-C variant ALT3 (1-8), I54M/I99V/W118Y/F259Y/I278V/F339Y/F396Y relative to OXOX-C-ALT1 (SEQ ID NO: 35), SEQ ID … (protein)
# chain: B1 chain with I53M, I98V, W117Y, F258Y, I277V, F338Y, F395Y
# B4: Ceriporiopsis subvermispora oxalate oxidase OXOX-C variant ALT4 (1-23), W118Y/I166V/F259Y/I278V/Y282F/F339Y/F396Y relative to OXOX-C-ALT1 (SEQ ID NO: 35), SEQ … (protein)
# chain: B1 chain with W117Y, I165V, F258Y, I277V, Y281F, F338Y, F395Y
# B5: Ceriporiopsis subvermispora oxalate oxidase OXOX-C variant ALT5 (2-6), I54M/I60E/I99V/W118Y/F259Y/I278V/F339Y/Y359F/F396Y relative to OXOX-C-ALT1 (SEQ ID NO: … (protein)
# chain: B1 chain with I53M, I59E, I98V, W117Y, F258Y, I277V, F338Y, Y358F, F395Y
# Experiments:
# Type in all cases: biochemical, Ceriporiopsis subvermispora
# [1] = substrate: O=C(O)C(=O)O; test: Oxalate oxidase kinetics, coupled horse radish peroxidase assay, ALT1 (WT-Q7)
# Text: (§1) The E. coli expression system was based on the published protocol of Escutia et al. Escutia et al., Cloning and sequencing of two Ceriporiopsis subvermispora bicupin oxalate oxidase allelic isoforms: implications for the reaction specificity of oxalate oxidases and decarboxylases. (2005). The coding sequence for the mature OXOX enzyme was inserted in E. coli expression vector pET32 (Invitrogen) to include a 6× histidine tag at the C-terminus. The resulting expression plasmid was transformed into E. coli strain BL21Star pLysS (Invitrogen).
# (§2) E. coli cultures were grown at 37° C. At optical density 0.4, arabinose was added to a concentration or 0.4%. After another hour of growth at 37° C., MnCl2 was added to 5 mM and IPTG to 1 mM. Cultures were then grown at 25° C. for 16 hours. Cells were harvested by centrifugation at 4000 rpm for 10 min. The supernatant was discarded and cell pellets were kept at −80° C. for at least one hour. Pellets were resuspended in total 40 ml of lysis buffer with 50 mM phosphate buffer pH7, 2 mg/ml protease inhibitor (sigma P-8465), 100 mM KCL, 1/1000 lysozyme, 1/2000 endonuclease, and incubated at 37° C. with shaking for one hour, followed by sonication. Cellular debris was removed by centrifugation and the clarified supernatant was poured into a new tube. Nickel resin (Qiagen) was added. After a short period of incubation, the slurry was poured onto a column and washed with buffer. Purified OXOX protein was eluted from the resin in 50 mM succinate pH 5, 100 mM KCl. The E. coli expression procedure was scalable allowing large scale protein production for kinetic analysis as well as small scale production for high throughput screening of libraries.
# (§3) Oxalate oxidase enzymatic activity was determined in a coupled reaction. Oxalate oxidase converts oxalic acid to carbon dioxide and hydrogen peroxide. In the presence of horse radish peroxidase, hydrogen peroxide reacts with 3-methyl-2-benzothiazolinone hydrazone (MBTH) and N,N-dimethylaniline (DMA) to form indamine dye, which can be detected spectrophotmetrically or colorimetrically as described by Laker, M. F., Hoffman, A. F., and Meeuse, J. D. (1980) Clinical Chemistry 26, 827-830. The coupled reaction was used for characterization of oxalate oxidase kinetic properties as well as in a screening procedure to identify oxalate oxidase variants with improved enzymatic properties.
# (§4) Three potential glycosylations sites with the consensus amino acid sequence N—X—(S/T) were identified in OXOX-C at amino acid positions 60, 384 and 430 in SEQ ID NO:27. Site-directed mutagenesis was used to alter these sites (Quickchange, Stratagene). Every possible amino acid substitution was generated at the third amino acid position of each potential glyosylation site. The resulting variants were screened for activity using the enzymatic assay described in Example 3. […] These variants correspond to sequences OXOX-C-MOD1-ALT1 (SEQ ID NO:23) and OXOX-C-MOD1-ALT2 (SEQ ID NO:24).
# (§5) More modest improvements in Km and Kcat were observed under lower pH conditions. Coupled reaction was preformed as described in Example 3. Enzyme kinetic parameters were determined by standard methods as described in Segel (1976) Biochemical calculations, 2nd Edition. John Wiley & Sons, London, New York, Sydney, Toronto.
# [2] = substrate: O=C(O)C(=O)O; test: Oxalate oxidase kinetics, coupled horse radish peroxidase assay, ALT2 (glyc-)
# Text: as §1, §2, §3, §4, §5
# [3] = substrate: O=C(O)C(=O)O; test: Oxalate oxidase kinetics, coupled horse radish peroxidase assay, ALT3 (1-8)
# Text: as §1, §2, §3
# (§6) DNA shuffling was performed as described elsewhere herein. A polymerase chain reaction product corresponding to the OXOX-C coding sequence was fragmented by limited nuclease treatment. Synthetic oligonucleotides encoding sequence diversity from oxalate decarboxylase sequences found in public databases were added. A polymerase chain reaction procedure was performed on the mixture to yield a library of full length OXOX-C coding sequences with additional diversity incorporated. The resulting library was inserted in expression vector pET32, E. coli cells were transformed and protein was expressed, as described in Example 2. A tiered screening strategy was devised based on the OXOX protein expression and enzymatic activity determination procedures described in Examples 2 and 3, respectively. A high throughput screening process based on colorimetric determination of OXOX activity was utilized to identify individual E. coli strains harboring active OXOX variants. These OXOX-active strains were reassayed using quantitative spectrophotometric determination of OXOX activity. […] Three rounds of this iterative screening and selection procedure were completed, and OXOX variants with up to 8-fold improved activity were identified
# as §5
# [4] = substrate: O=C(O)C(=O)O; test: Oxalate oxidase kinetics, coupled horse radish peroxidase assay, ALT4 (1-23)
# Text: as §1, §2, §3, §6, §5
# [5] = substrate: O=C(O)C(=O)O; test: Oxalate oxidase kinetics, coupled horse radish peroxidase assay, ALT5 (2-6)
# Text: as §1, §2, §3, §6, §5
protein,measurement,setting,value
B1,Km,"[1]; other: pH 3.8, pH 3.8",330 µM
same,kcat,"[1]; other: pH 3.8, pH 3.8",5.00 s⁻¹
same,Km,"[1]; other: pH 4.8, pH 4.8",1210 µM
same,kcat,"[1]; other: pH 4.8, pH 4.8",2.70 s⁻¹
same,Km,"[1]; other: pH 5.8, pH 5.8",6010 µM
same,kcat,"[1]; other: pH 5.8, pH 5.8",0.85 s⁻¹
B2,Km,"[2]; other: pH 3.8, pH 3.8",280 µM
same,kcat,"[2]; other: pH 3.8, pH 3.8",5.60 s⁻¹
same,Km,"[2]; other: pH 4.8, pH 4.8",1240 µM
same,kcat,"[2]; other: pH 4.8, pH 4.8",2.99 s⁻¹
same,Km,"[2]; other: pH 5.8, pH 5.8",5900 µM
same,kcat,"[2]; other: pH 5.8, pH 5.8",0.91 s⁻¹
B3,Km,"[3]; other: pH 3.8, pH 3.8",310 µM
same,kcat,"[3]; other: pH 3.8, pH 3.8",4.69 s⁻¹
same,Km,"[3]; other: pH 4.8, pH 4.8",1700 µM
same,kcat,"[3]; other: pH 4.8, pH 4.8",3.21 s⁻¹
same,Km,"[3]; other: pH 5.8, pH 5.8",8380 µM
same,kcat,"[3]; other: pH 5.8, pH 5.8",1.36 s⁻¹
B4,Km,"[4]; other: pH 3.8, pH 3.8",350 µM
same,kcat,"[4]; other: pH 3.8, pH 3.8",4.08 s⁻¹
same,Km,"[4]; other: pH 4.8, pH 4.8",1320 µM
same,kcat,"[4]; other: pH 4.8, pH 4.8",2.70 s⁻¹
same,Km,"[4]; other: pH 5.8, pH 5.8",5510 µM
same,kcat,"[4]; other: pH 5.8, pH 5.8",0.85 s⁻¹
B5,Km,"[5]; other: pH 3.8, pH 3.8",460 µM
same,kcat,"[5]; other: pH 3.8, pH 3.8",10.01 s⁻¹
same,Km,"[5]; other: pH 4.8, pH 4.8",2320 µM
same,kcat,"[5]; other: pH 4.8, pH 4.8",7.06 s⁻¹
same,Km,"[5]; other: pH 5.8, pH 5.8",8910 µM
same,kcat,"[5]; other: pH 5.8, pH 5.8",2.44 s⁻¹
